Data reported in article doi:10.1101/460097.
Each block holds one substance with its values, some of them ahead of it.

Assays:
[1] = biological target: mouse (Mus musculus) PCDH15 EC10-MAD12 produced in mammalian cells (mouse (Mus musculus)); test: SEC-MALS
[2] = biological target: mouse (Mus musculus) PCDH15 EC10-MAD12 produced in mammalian cells (mouse (Mus musculus)); test: AUC
[3] = biological target: mouse (Mus musculus) PCDH15 EC10-MAD12, refolded from bacteria (mouse (Mus musculus)); test: SEC-MALS
[4] = biological target: mouse (Mus musculus) PCDH15 EC10-MAD12, refolded from bacteria (mouse (Mus musculus)); test: SEC-SAXS
[5] = biological target: pig (Sus scrofa) PCDH15 EC10-MAD12 (pig (Sus scrofa)); test: SEC-MALS
[6] = biological target: pig (Sus scrofa) PCDH15 EC10-MAD12 (pig (Sus scrofa)); test: AUC
[7] = biological target: pig (Sus scrofa) PCDH15 EC10-MAD12 (pig (Sus scrofa)); test: SEC-SAXS

stoichiometry N [1]: 2 | stoichiometry N [2]: 2
Substance: mouse (Mus musculus) PCDH15 EC10-MAD12 produced in mammalian cells (domain or fragment)

Substance: mouse (Mus musculus) PCDH15 EC10-MAD12, refolded from bacteria (domain or fragment)
stoichiometry N [3]: 2 | stoichiometry N [4]: 2

stoichiometry N [5]: 2 | stoichiometry N [6]: 2 | stoichiometry N [7]: 2
Substance: pig (Sus scrofa) PCDH15 EC10-MAD12 (domain or fragment)
